Assay: soluble on expression in E. coli; label from the status in PepcDB or PDB records

Row | Sequence | soluble on expression in E. coli
1 | MGSDKIHHHHHHMIEQLIQQAQPYWQQYIEHEFVQQLAKGTLPKACFQHYLKQDYLYLFHYSRAFALGVFKAKNFAEMETPRKTLEILCQEIQLHLNYCREWGISEQEIFTTQESAACIAYTRYLLDCGMTGSLAELYAAVTPCALGYAQVARYITQHYPRLPNNPYQTWIDTYASEEFQQAAQETVDFLTALCKPLNPSQLAEIQQIFTTATRMEIAFWQMGLDLA | not soluble
2 | MGSDKIHHHHHHMPTLPAYPLFREHSLLYLAHMGISKLKPSNSATTLLQLAREVLAIEAREVQALAGRLDQSFVNAVELILQCRGRVVVTGIGKSGHIGNKIAATLASTGTPAFFMHPAEASHGDLGMITRDDVVIALSNSGEADELLALLPPLKRIGTPIISISGNRHSTLSKAADIFLDAHVSQEACPLGLAPTASTTAALALGDALAVTLLDQRGFSREDFALAHPGGSIGRRLLLHVQDVMRSGDDIPAVSVSSSLKDGLLEMSRKGLGMTAVLDAADKPVGIFTDGDLRRAFEAGIDINGTRMADVMHAHPRSILPGQLAVDALALMEQYSISSLLVVDQQGNLVGALNMHDLLMAKVV | not soluble
3 | MGSDKIHHHHHHMKNNHTLIIGGGIVGATLALKLAQDNKPVTLIDARPKRSEADWQQVLGQRDARVYALSLASIHLLKEVGAWQKIAASERKADYSQMQVWQLNGMGELLFGDSGDSNSSTGNSNVANNNDNTEPKMLGSMVEPAVIEHALWQRLSAPDVSQYLTVIAGHKVVDMDWLGATQGYRVTLDNGDVIDARLLVGADGRGSFVRKQAGIELDVLDYNQTAICCAIQTEKPHLATARQAMLPTGTLALLPLADITDEDKANPQHWQSIVWTLPRNQALALVAEHPCYIADKLAAASHYELGAIHKIESIASFPLAAQQAKSYVADNLVLIGDAAHGVHPLAGQGLNLGMLDVRALSKQLAHDYNRSGGTLWGANQTLRSYERLRRPHNSLMMHSFSALNWLFAGSLAQIRPVQQLRNEGMYRVSKIKPLMRLFAKQASGV | not soluble
4 | GSMFTPKPPQDSAVIKAGYCVKQGAVMKNWKRRYFQLDENTIGYFKSELEKEPLRVIPLKEVHKVQECKQSDIMMRDNLFEIVTTSRTFYVQADSPEEMHSWIKAVSGAIVAQRGPGRSASSEHP | soluble
5 | MTTPLAQRIKSLIRLNGPLSVTDFFSLCLADPEHGYYKSREPFGRSGDFITAPEVSQLFGEMLGVFVVHAWQRHGAPAQTQLVEIGPGRGTMMSDMLRVIRRIAPPLYETMRVHLVETSPRLSAIQKETLTAHADRLTWHDSFDDVPEGFLLLVANELFDAIPIRQFVRTPQGFRERVVSLDANGELVFSTGLAGIDPTLLPPQPERQQLGTVFEVSPAREAVMTAICQRLSVHGGTALAIDYGHLVAGYGDTLQAMRNHAFDPPLAHPGEADLTSHVDFESLVKTAQATGVHVNGALRQGDFLHGLGLKERASALAAKATPDQTLEIAEAVNRLAGEGAGKMGELFKVIAVSSPALHLLPFRAVDLEHHHHHH | soluble
6 | MSNLEIKQGENKFYIGDDENHALAEITYRFVDNNEINIDHTGVSDELGGQGVGKKLVKAVVEHARENHLKIIASCSFAKHMLEKEDSYQDVYLG | soluble
7 | MNETEFYAYHIVTRKKMHIGQMIPFNKNQHNTLYHFFFEREQLNANGEDGIQILNNHYKNDELHINNENAKVVISYMDQTIRAARETIVEMVRLQEFPEYPSRLSCLYAAKSYEDALKWKALFDSYNREVLQIVKLRVIGSSFEGDGNLLPKEDGIPFSQKIEQARKYWKGNIRNELPELLINGEIEVVEIIDDFSSIHI | soluble
8 | PDLLIELFSEEIPARMQARAREDLKKLVTDGLVEAGLTYASAGAFSTPRRLVLSVEGLSAESPTLREERKGPKADAPAAAIEGFLRSTGLTRDQLETREDKKGAVLFAVVEKPGRRAPDIVAEVLERTIRTFPWPKSMRWGTGSLRWVRPLHSILCLLSDEAGSQVVPVTVDQVTAVNTTEGHRFMAPGRFAVTGFDDYRAKLQRALVMLDAAEREQAIWHEATTQAFAQGLEVVPDAGLLAEVAGLVEWPVVLMGPIGEEFLGLPPEVLQTSMREHQKFFSVRNPATGRIEKFVTVANRETADHGATILKGNAKVLSARLSDASFFWENDRRTVQTVGLEGMAAGLAHVTFHNKLGSQADRIARIEALAREIAPLVGASPDLAAEAARVAKADLQSAMVGEFPELQGTMGSYYARAAGLPEPVALACKAHYQPLGPSDAVPTDPVSVAVALADKIDTLTGFWAIDEKPTGSKDPFALRRAALGVVRLLLMNGLRLSLLNQVRFAHGCLAEQFNSRFNFFVQIREEPKEAVNIGVGHRYPEVVSDQCTSILMGYVENPVESVASGKFTIDGRAVGTKP | not soluble
9 | MSADEFILQQKVHALYSNHRSWLQRWLYRKLGNACDAADLVQDTFISVITGGYADDIREPKPFLATIAGRLVAHRWRRNQLETAYLEALAALPVELMPSPEAHVLALEALLEIDRALDGLPTRVKEAFLLAHLEELSYAQIAERLNVSTSSVKQYLTRANRQCLFALSV | not soluble
10 | MGSDKIHHHHHHMKQIIDIENWERKENFNFFRHFQNPQLSITSEVECGGARQRAKAAGQSFFLHYLYAVLRAANEIPEFRYRIDPDGRVVLYDTIDMLSPIKIKENGKFFTTRFPYHNDFDTFYQEARLIIDAIPEDGDPYAAENEEVADGDYGLILLSATPDLYFTSITGTQEKRSGNNYPLLNAGKAIIREGRLVMPIAMTIHHGFIDGHHLSLFYKKVEDFLK | not soluble
11 | MGSDKIHHHHHHMRELRYNPLTGQWIMVSAVRKNRPWRPRNFCPFCPGSEETGYGWEVLLLPNRFPMLSFDAPKPKNEDFYKKARAMGQCSVIVETPKHELRDLDELPREQMVKIVRMWIKITETLKENRNVAYLAIFRNKGEEIGVSLKHPHGQLYALPYIPLKVRLKIENSRRYYKRTGECIFCRIIKEEEKNGERTIYENDNFIVFMPFFASWPFEVHIYPKRHIQYLTDLKVNEIEDLAEVIQVTTATLNAVLDRQMPYAMMIFQAPFKGNYPFYHLHIEFYPILRDNGKVKYTAGIELGTWEFTYDGIPEENARKLKEACKKVSQRMSLKGKCI | not soluble
12 | MGSDKIHHHHHHMNSNQLAFTIPISREMINIANKLSQQQRNEQKTREVYLNTLALLAVEFFCQCMEIETEFSKSYGLDSVVLSLMNTASIFIKDKGLLECRPVLPREDFCEIPAEILSERIGYMVVEIDELDRQAKIVGFVESVSNEKLALSKLGSLQDFLIYLQKLQKIENYDPSNPDISEIARNQLNESIVKLSKWFKGLLDSGWEYELAIAKDIPNVLAVPKDISPVNVTDKEEVGGARIIHLMHLSEPVLLILRQTRLSPDEIEIILRLYPASESIFLLDGIKMTLLDEKDNPIRQLEKQAKASNWLQLRFKGNVGDKFSLKISFRGDSVITKFII | not soluble
13 | MSLDLHYKQFLLLNLYRQDKCLLAEVLLKDSSEFSFGVKFFNYGQLIAYIDSLNSNVYNASITENSFFMTFFRSYIIENTSHKNIRFFLENVECPFYLRHNEVQEFMFAMTLFSCGNFDQSYEIFQLHDYPEAINDKLPTFLEDLKSENYHGDSIWKDLLCTFTVPYRHSAFYYQLSLLFDRNNSQEFALKCISKSAEYSLKEIQIEELQDFKEKQHIHYLNLLIHFRMFEEVLDVLRLGHECLSDTVRTNFLQLLLQEDIYSRDFFSTLLRLCNAHSDNGELYLRTVDIKIVDSILSQNLRSGDWECFKKLYCFRMLNKSERAAAEVLYQYILMQADLDVIRKRKCYLMVINVLSSFDSAYDQWILNGSKVVTLTDLRDELRGEGHHHHHH | not soluble
14 | MLVMIDTKRPPVYIDSQVGLNTFFFIRGQYPSLNLFVSFITTVKTLGNNVSRTHGDDAESDCVCDSVSNVDENNEVVDEQDDVEDDKTDEDEEEGDNEDGDGYDAY | not soluble
15 | MDEYNKNPEENDKPEYDMKMEALLKVLNREIPIKAHAHRADDILTAIRIAKEFGLRLTIEHCTEGHLIKDILAEEGVSAIVGSSLTDRSKVELRNLSLKTPGILAKAGVKVAIMTDHPCTPIQYLILCAAMAVREGMDEMEALRAVTINAAELTGIADRVGSIEVGKDADIAIYDGHPFDIRSKVSTTIINGKVVYERKKHERD | not soluble
16 | MSLDHRLLSINTATVRRQGDLATIIEACARAQIRAISPWRDQVAHIGLPRAVEAVKATGLALSGYCRGGMFPADPARLPEVRDDNRRAVDEAEALGASCLVLVVGGLPQYARPGSAPSKDIGAARAMVEDGIGTLLEYARSAHMPLAIEPLHPMYAADRACVNTMGQALDICDRLDPERSGMLGVALDVFHVWWDPDLSAQIVRAGRDRLLAYHVCDWLVPMADMLNDRGMMGDGVIDLKAIRAQVEAQGYQGFAEVEIFSEHWWAKPMEEVLGTCISRHRSVVEGHHHHHH | not soluble
17 | MGSDKIHHHHHHMPKNLYNYQEFIRLSHEGKIAFEQIDVPKNASLLTEKIDIDNHIYLVVDGYIALILNDGSQNPKIYSIQGKGTFLNYFTLLDRSNNHFNFKTLSGCSLYKYSKADMEYFLSMFPENFGFQFFIMKNQTTHIYFKSLMASSPASEKLKTTFSNMALLHGVLSDDDTVILPQAIKTSHLLSYSNLSKSCFYKDLQHLKTTNQIEKKEKSWIIHDQELYAMIQNGQTSF | not soluble
18 | MGSDKIHHHHHHMSEPIIISIHNYKSAGVTFYSIIDRQFKKDEILNSDLLGMDDTYLMLSQADEKIINKIKIIHGHFPFGLDRLLPQKSTYITFLRNPIERLISDYYYCKDFALAHNHSYASTMSFKEYLSCSDILNIDNGQTRFVAGGENVPYGDNSIEMLNRAIENIEKRFSFVGITEKFDESLLIANAVFSWNQYYYTSKNITSSKSYDFDEETWELLRKRNFLDLQLYEYALKKHAGDLKKIPYVKLKMILLKTLKSLFVVTKSIYAPVKKRFFR | not soluble
19 | MPALSHGLSRFRGEAKPPGPSPRRSRESMAMDSKASMFTHGARPARIALFSGNYNYTLDGANKSLNRLVDHVQRTTGAQVRIYSPTSPTPAFAPVGELVSVPSVTIPFRRDYRLALGLPAAVRRDVEAFAPDLIHLSAPDLLGAAALKLGRRLKTPVVASLHTLFDSYLDYYGLGGLRALARRRLWQFYGACDFVMTPTPAIGEELRAQNLGVQVRTWARGVDADLFNPARRSADWRAAQGFDPDRPVIVFLGRLVMEKGLAAFADTIDRLAASGPSPQVLIIGDGPARAWFQERLPMATFAGFLTGEALATALASADIFLNPSTTETFGNVNLEAMASGLAIVCADAPNTRALLRDGRDAILCAPSDPASYAQALLSLCQDQNRLRRMGAKALDRSAAYRWTEILDEVVDIYAEALDARASAPSRAEVSPHELRARTGRRAGLIDAQAAALSTPLEHHHHHH | soluble
20 | SLKEFELKGINHLALVCRDFQETIDFYTITLGLKLIKNIDLPSGGKHFFIDIGNNNTLAFFWSTKAPESVPGISSVRPEAFLTGDIITAHGSMNHVAFHVPLEKLEEYKEKLVSKGVQTTPVLHHTDVPMSSFYFFDPNGILLEFAANLQSLDTLPAELKEKEAIFLKEG | soluble
21 | MDDIIQQLFKEVERPQLTVNEQALQQYLYREIVRLTLLVEPTISKPQIIGLLSALVKKARHYVNADNQAECIQQLLDLVYQEWRFHCDYQEYFYTDNLLLHRVIRSHRGMPLSIGAIVLYLAAKLQLPIYPVNFPTQLILRAEITESSGKKTVRFINPWDGQFLPLELLLKWLEGEVGYGVELSPELLRRADPAELLERVETVFKMVLTREGKYEQTLRLIEYRLAENPDDPYEIRDRGMVLASMDCYQAAYDDLSYFIDQCPDDPSAAILKSEVKGLEQKSKQNQVHLEHHHHHH | soluble

— the DeepSol protein solubility set
